Laboratory results from patent US20140235820A1, “METHODS AND COMPOSITIONS FOR MODULATING THE Wnt PATHWAY” (Genentech, Inc., priority 2010, published 2014).

T1: human LRP6 construct E1E2 (amino acids A20-E631) (human, UniProt O75581 20-631, biotinylated for biolayer interferometry)
T1 construct: range 20-631; also called LRP6 E1E2
T1 sequence (looked up): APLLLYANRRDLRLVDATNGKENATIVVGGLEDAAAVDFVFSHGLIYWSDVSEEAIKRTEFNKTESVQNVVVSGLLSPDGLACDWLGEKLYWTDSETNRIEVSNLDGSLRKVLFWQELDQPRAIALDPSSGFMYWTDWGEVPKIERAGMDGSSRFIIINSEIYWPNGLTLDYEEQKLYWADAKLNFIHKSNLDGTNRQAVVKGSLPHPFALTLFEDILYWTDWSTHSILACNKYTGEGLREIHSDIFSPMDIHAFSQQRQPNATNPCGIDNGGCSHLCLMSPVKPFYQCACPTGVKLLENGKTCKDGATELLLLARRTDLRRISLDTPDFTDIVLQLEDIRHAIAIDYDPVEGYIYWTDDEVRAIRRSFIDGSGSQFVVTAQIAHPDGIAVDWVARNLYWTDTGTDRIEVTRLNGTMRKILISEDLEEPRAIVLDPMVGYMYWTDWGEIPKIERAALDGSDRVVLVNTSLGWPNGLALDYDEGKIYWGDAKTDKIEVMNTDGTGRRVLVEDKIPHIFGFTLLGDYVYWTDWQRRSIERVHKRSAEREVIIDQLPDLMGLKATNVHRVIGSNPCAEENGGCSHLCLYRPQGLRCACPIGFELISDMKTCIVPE

T2: human LRP6 construct E1E4 (amino acids A20-Q1253) (human, UniProt O75581 20-1253, biotinylated for biolayer interferometry)
T2 construct: range 20-1253; Expressed in Tni insect cells; tags not specified for this construct; also called LRP6 E1E4
T2 sequence (looked up): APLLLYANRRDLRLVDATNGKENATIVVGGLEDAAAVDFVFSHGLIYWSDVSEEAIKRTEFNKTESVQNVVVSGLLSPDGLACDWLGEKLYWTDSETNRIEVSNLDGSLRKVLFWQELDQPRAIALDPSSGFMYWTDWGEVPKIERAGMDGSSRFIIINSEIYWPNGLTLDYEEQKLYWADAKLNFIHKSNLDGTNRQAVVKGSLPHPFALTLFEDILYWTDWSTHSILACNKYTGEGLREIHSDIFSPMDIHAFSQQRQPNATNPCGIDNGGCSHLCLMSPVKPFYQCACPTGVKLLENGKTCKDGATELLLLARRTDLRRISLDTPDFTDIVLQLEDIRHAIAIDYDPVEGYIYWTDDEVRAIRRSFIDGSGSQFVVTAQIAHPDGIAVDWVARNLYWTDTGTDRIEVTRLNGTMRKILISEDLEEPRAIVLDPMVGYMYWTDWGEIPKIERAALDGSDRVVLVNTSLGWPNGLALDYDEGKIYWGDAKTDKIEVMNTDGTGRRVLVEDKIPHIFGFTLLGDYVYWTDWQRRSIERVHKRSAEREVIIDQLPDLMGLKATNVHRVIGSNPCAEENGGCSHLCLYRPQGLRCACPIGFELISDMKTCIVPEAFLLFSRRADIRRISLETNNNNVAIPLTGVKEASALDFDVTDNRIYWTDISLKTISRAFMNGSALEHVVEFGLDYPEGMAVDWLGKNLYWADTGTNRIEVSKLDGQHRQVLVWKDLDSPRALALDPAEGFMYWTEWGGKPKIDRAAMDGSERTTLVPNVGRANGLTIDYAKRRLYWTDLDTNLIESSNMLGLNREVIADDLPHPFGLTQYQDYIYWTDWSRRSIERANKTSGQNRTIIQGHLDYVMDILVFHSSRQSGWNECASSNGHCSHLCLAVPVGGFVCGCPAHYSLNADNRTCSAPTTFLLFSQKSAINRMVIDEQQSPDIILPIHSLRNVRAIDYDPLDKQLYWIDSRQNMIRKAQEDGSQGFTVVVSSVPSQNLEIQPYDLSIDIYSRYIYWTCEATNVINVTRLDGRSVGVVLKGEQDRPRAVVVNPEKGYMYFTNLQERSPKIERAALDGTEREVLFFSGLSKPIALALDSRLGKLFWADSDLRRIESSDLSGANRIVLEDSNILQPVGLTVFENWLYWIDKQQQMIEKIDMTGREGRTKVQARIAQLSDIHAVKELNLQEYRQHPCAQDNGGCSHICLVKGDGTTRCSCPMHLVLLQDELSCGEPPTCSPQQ


What was measured:
[1] = target: T1, human LRP6 construct E1E2 (amino acids …); assay: BLI affinity
Protocol: (§1) Binding kinetics were measured by biolayer interferometry using an Octet Red instrument (ForteBio) as previously described (11). Streptavidin (SA) biosensors were loaded with biotinylated hLRP6 in 50 mMTris, pH 8, 300 mM NaCl, 5% (v/v) glycerol, and 0.05% (w/v) Triton X-100. The loaded biosensors were washed in the same buffer before carrying out association and dissociation measurements for the indicated times. The Kd of each interaction was determined using steady state-analysis through the Octet Red software v6.3. Each reported value represents an average of three or more experiments at different concentrations, with a fitted experimental curve for which the square of the correlation coefficient (R²) is above 0.96.

[2] = target: T2, human LRP6 construct E1E4 (amino acids …); assay: BLI (FIG. 9B)
Protocol: as §1

[3] = target: T1, human LRP6 construct E1E2 (amino acids …); assay: BLI (FIG. 9B)
Protocol: as §1

Binder | fold loss in affinity against wild-type Dkk1 [1] | binding result [2] | binding result [3]
Dkk1 Ile42Glu (ligand, human, UniProt O94907 32-266, looked up, also called Dkk1 I42E) TLNSVLNSNAEKNLPPPLGGAAGHPGSAVSAAPGILYPGGNKYQTIDNYQPYPCAEDEECGTDEYCASPTRGGDAGVQICLACRKRRKRCMRHAMCCPGNYCKNGICVSSDQNHFRGEIEETITESFGNDHSTLDGYSRRTTLSSKMYHTKGQEGSVCLRSSDCASGLCCARHFWSKICKPVLKEGQVCTKHRRKGSHGLEIFQRCYCGEGLSCRIQKDHHQASNSSRLHTCQRH | > 364 fold |  | 
Dkk1 K211E (ligand, human, UniProt O94907 32-266, looked up, also called Dkk1 Lys211Glu) TLNSVLNSNAIKNLPPPLGGAAGHPGSAVSAAPGILYPGGNKYQTIDNYQPYPCAEDEECGTDEYCASPTRGGDAGVQICLACRKRRKRCMRHAMCCPGNYCKNGICVSSDQNHFRGEIEETITESFGNDHSTLDGYSRRTTLSSKMYHTKGQEGSVCLRSSDCASGLCCARHFWSKICEPVLKEGQVCTKHRRKGSHGLEIFQRCYCGEGLSCRIQKDHHQASNSSRLHTCQRH |  | binds | binds
